Assay results as given in patent publication US20190010249A1 (Ablynx, published 2019).

Assays:
[1] = biological target: T1, human multimeric vWF (purified vWF HaemateP) (human, UniProt P04275 764-2813); assay: Gyrolab solution affinity, 5 pM caplacizumab pre-incubated with vWF dilution series; lyophilized formulation
T1 construct: vWF purified from HaemateP by size-exclusion chromatography; also called multimeric target vWF; purified HaemateP
From the text: (§1) This assay measures the inhibition of ristocetin-induced binding of von Willebrand Factor (vWF) to bound platelet by caplacizumab. [0395] c) The RICO assay is used as pharmacodynamics marker for the pharmacological activity of caplacizumab. The assay measures the rate and degree to which human lyophilized platelets form aggregates after the addition of the antibiotic ristocetin, which mimics shear-induced activation of vWF. [0396] d) Gyrolab-based assay analyses the kinetic interactions of caplacizumab with its multimeric target vWF and determines the affinity constant of caplacizumab to human multimeric vWF. Briefly, affinity determination on the Gyroloab platform was established as follows: Gyrolab Bioaffy 1000 CDs were used. As capture tool, 3000 nM in-house biotinylated purified vWF (purified HaemateP using size-exclusion chromatography) was applied on the columns which were pre-packed with streptavidin-coated beads. Filter-sterilized D-PBS containing 0.01% Tween-20 was used for dilution of the capture tool. […] Free caplacizumab was detected with 50 nM AlexaFluor647-labeled anti-caplacizumab monoclonal antibody diluted in Rexxip F buffer (commercially available detection buffer). […]

[2] = biological target: T1, human multimeric vWF (purified vWF …); assay: Gyrolab solution affinity, 5 pM caplacizumab pre-incubated with vWF dilution series; liquid formulation
From the text: as §1

- Kd [1]: 4.46 pM
- Kd [2]: 6.84 pM
B1: 12A02H1-3a-12A02H1 (ALX-0081) (VHH)
chain: EVQLVESGGGLVQPGGSLRLSCAASGRTFSYNPMGWFRQAPGKGRELVAAISRTGGSTYYPDSVEGRFTISRDNAKRMVYLQMNSLRAEDTAVYYCAAAGVRAEDGRVRTLPSEYTFWGQGTQVTVSSAAAEVQLVESGGGLVQPGGSLRLSCAASGRTFSYNPMGWFRQAPGKGRELVAAISRTGGSTYYPDSVEGRFTISRDNAKRMVYLQMNSLRAEDTAVYYCAAAGVRAEDGRVRTLPSEYTFWGQGTQVTVSS
notes: Bivalent Nanobody: a single chain of two 12A02H1 domains joined by an AAA linker; It was tested as samples from different formulations and storage conditions; also called caplacizumab; anti-vWF Nanobody caplacizumab
